Reference: US20190233475A1 (Bicycle, published 2019)
*1 amine or outer side, *2 acyl side, *3 side chain or, on linkers, in order; H or OH if unused. Bridges are numbered along the chain shown (N, C = ends). Where no end group is shown, it is not given here. TBMB = c1c(C[*:1])cc(C[*:3])cc1C[*:2]

Molecular target: T1, biotinylated human plasma kallikrein (human, UniProt P03952 20-638, biotinylated (sites not given))
T1 construct: mature; also called biotinylated hPK; biotinylated human kallikrein
T1 sequence (P03952 20-638 limits assumed): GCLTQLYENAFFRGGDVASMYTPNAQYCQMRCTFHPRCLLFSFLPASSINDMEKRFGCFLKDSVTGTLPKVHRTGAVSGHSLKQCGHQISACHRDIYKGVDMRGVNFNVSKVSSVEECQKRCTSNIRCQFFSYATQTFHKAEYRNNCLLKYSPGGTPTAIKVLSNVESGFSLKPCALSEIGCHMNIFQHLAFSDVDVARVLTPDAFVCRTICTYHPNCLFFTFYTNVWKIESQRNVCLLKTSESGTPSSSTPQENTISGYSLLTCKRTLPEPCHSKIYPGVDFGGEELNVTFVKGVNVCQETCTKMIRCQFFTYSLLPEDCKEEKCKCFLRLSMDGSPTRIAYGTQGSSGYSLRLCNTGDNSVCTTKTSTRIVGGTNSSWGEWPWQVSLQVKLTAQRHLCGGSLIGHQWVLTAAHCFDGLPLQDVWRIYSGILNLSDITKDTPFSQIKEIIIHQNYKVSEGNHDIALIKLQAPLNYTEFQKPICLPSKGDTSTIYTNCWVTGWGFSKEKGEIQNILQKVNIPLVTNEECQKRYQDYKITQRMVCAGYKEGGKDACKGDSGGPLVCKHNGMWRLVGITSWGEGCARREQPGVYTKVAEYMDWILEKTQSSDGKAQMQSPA
Assay: homogeneous plate-based binding assay, TBMB-cyclised phage on biotinylated human plasma kallikrein
Experimental: Assay of binding of individual clones: Library transformant colonies, or selection output colonies, were picked and grown as individual cultures in 2TY broth containing selective antibiotic. The picked colonies were DNA-sequenced using a QIAgen PyroMark Q96 DNA sequencer to reveal the amino-acid substitution present in each clone, and were assayed for human plasma kallikrein binding as follows. The phage-containing supernatant was harvested from the culture and phage were cyclised with tris-bromomethylbenzene (TBMB) based on the methods of Heinis et al (Nature Chemical Biology vol. 5 pp 502-507 (2009)). The purified phage from this process were assayed for binding to biotinylated human plasma kallikrein using a homogeneous plate-based binding assay; assay read-out measured on a BMG Labtech Pherastar FS plate reader. The quantitative binding data from duplicate assay samples was averaged (mean) and expressed as signal:background. Assay data shown is representative of at least 2 independent experiments. The assay data was correlated with the peptide sequences.

Row | Binder | S:B (signal:background)
1 | CKNYWNPCDLIGITC (linker 1-8-15 via TBMB) [06-254-G2] | 46.3
2 | CNTWNPWCGWVGGFC (linker 1-8-15 via TBMB, also called 06-259 (phage clone)) [06-259 (parent)] | 1.17
3 | CNYWNPWCSDTRIGC (linker 1-8-15 via TBMB) [06-259-A6] | 22.6
4 | CKNYWNPCDLLHVRC (linker 1-8-15 via TBMB) [06-254-A7] | 26.1
5 | CKNYWNPCDLIETTC (linker 1-8-15 via TBMB) [06-254-01 (phage clone)] | 61.9
6 | CKNYWNPCDLVHDIC (linker 1-8-15 via TBMB) [06-254-E3] | 30.2
7 | CKNYWNPCDLLGIAC (linker 1-8-15 via TBMB) [06-254-B9] | 38
8 | CNHWNPWCSDDPYIC (linker 1-8-15 via TBMB) [06-259-H3] | 38.7
9 | CNTWNPWCPWDAPLC (linker 1-8-15 via TBMB) [06-259-02 (phage clone)] | 43.5
10 | CKNYWNPCDLIQDAC (linker 1-8-15 via TBMB) [06-254-F4] | 46.4
11 | CNHWNPWCSVEPPVC (linker 1-8-15 via TBMB) [06-259-01 (phage clone)] | 51.7
12 | CKNYWNPCDLVTISC (linker 1-8-15 via TBMB, also called 06-254 (phage clone)) [06-254 parent] | 23.5
13 | CKNYWNPCDLVEAQC (linker 1-8-15 via TBMB) [06-254-G4] | 33.1
14 | CNTWNPWCSWPDIDC (linker 1-8-15 via TBMB) [06-259-F2] | 22.7
15 | CKNYWNPCDLVDTFC (linker 1-8-15 via TBMB) [06-254-A4] | 32.4
16 | CNHWNPWCPADIPVC (linker 1-8-15 via TBMB) [06-259-E2] | 37.7
17 | CKNYWNPCDLIPGPC (linker 1-8-15 via TBMB) [06-254-02 (phage clone)] | 46.6

Row | Binder | S:B (signal:background)
18 | CKNYWNPCDLVMDTC (linker 1-8-15 via TBMB) [06-254-03 (phage clone)] | 56.7
19 | CNHWNPWCSADPPIC (linker 1-8-15 via TBMB) [06-259-03 (phage clone)] | 49.8
20 | CNHWNPWCSADPPRC (linker 1-8-15 via TBMB) [06-259-F1] | 38
21 | CKNYWNPCDLVQIHC (linker 1-8-15 via TBMB) [06-254-H4] | 38.9
22 | CKNYWNPCDLIPDLC (linker 1-8-15 via TBMB) [06-254-F5] | 38.7
23 | CKNYWNPCDLLPDLC (linker 1-8-15 via TBMB) [06-254-B1] | 9.99
24 | CKNYWNPCDLIPDMC (linker 1-8-15 via TBMB) [06-254-D6] | 24.4
25 | CKNYWNPCDLIADLC (linker 1-8-15 via TBMB) [06-254-H3] | 25.2
26 | CKNYWNPCDLIPTGC (linker 1-8-15 via TBMB) [06-254-G3] | 37.5
27 | CKNYWNPCDLIRPPC (linker 1-8-15 via TBMB) [06-254-D1] | 33.6
28 | CKNFWNPCDLIPISC (linker 1-8-15 via TBMB) [06-254-D3] | 20.3
29 | CKNYWNPCGLVYSTC (linker 1-8-15 via TBMB) [06-254-E6] | 23.5
30 | CNHWNPWCSSDPPVC (linker 1-8-15 via TBMB) [06-259-H4] | 33.6
31 | CKNYWNPCDLIWTDC (linker 1-8-15 via TBMB) [06-254-E2] | 31.4
32 | CKNYWNPCDLIAPYC (linker 1-8-15 via TBMB) [06-254-C1] | 27.4
33 | CKNYWNPCDLISIKC (linker 1-8-15 via TBMB) [06-254-B3] | 61.6
34 | CKNYWNPCDLLESTC (linker 1-8-15 via TBMB) [06-254-E5] | 29.7
